According to patent US20250320312A1 (OXITOPE PHARMA B V, published 2025):
Positions count from the first letter of the chain named.

Legend:
BSA [1] = target: BSA (UniProt P02769); assay: scFv ELISA
[2] = target: T1, Peptide 1: Biotin-AGGGGSGGGGSGGGGSAAA-[Tyr(PC)]-acid (N-terminal biotin; C-terminal Tyr(PC), PC = p-diazophenyl phosphoryl choline; C-terminal acid); assay: scFv ELISA
T1 construct: synthetic PC-conjugated peptide; the antibodies are directed at the phosphocholine group
T1 peptide: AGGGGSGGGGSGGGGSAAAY
Method in brief: (§1)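 Bound scFv was read as OD450 after HRP–anti-V5 detection, TMB development and HCl stop. PPE with BSA was incubated 1 h at RT on BSA-blocked wells coated overnight at 4° C. with peptide, or on streptavidin wells loaded 1 h with biotinylated PC-peptides at 1 μg/mL.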

[3] = target: T2, Peptide 8: Biotin-AEAAAKEAAAKEAAAKEAAAKAAA-Tyr-acid (N-terminal biotin; C-terminal acid); assay: scFv ELISA
T2 construct: control peptide without PC
T2 peptide: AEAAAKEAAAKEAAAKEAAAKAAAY
Method in brief: as §1

[4] = target: T3, Peptide 4: Biotin-AGGGGSGGGGSGGGGSAAA-Tyr-acid (N-terminal biotin; C-terminal acid); assay: scFv ELISA
T3 construct: control peptide without PC
T3 peptide: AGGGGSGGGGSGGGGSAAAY
Method in brief: as §1

[5] = target: T4, Peptide 5: Biotin-AEAAAKEAAAKEAAAKEAAAKAAA-[Tyr(PC)]-acid (N-terminal biotin; C-terminal Tyr(PC), PC = p-diazophenyl phosphoryl choline; C-terminal acid); assay: scFv ELISA
T4 construct: synthetic PC-conjugated peptide; the antibodies are directed at the phosphocholine group
T4 peptide: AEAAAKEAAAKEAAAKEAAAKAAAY
Method in brief: as §1

PC-BSA = assay: ELISA (DELFIA TRF), PC-BSA coated, titrated IgG1
Sequence of PC-BSA (P02769 25-607 limits assumed, form in doubt): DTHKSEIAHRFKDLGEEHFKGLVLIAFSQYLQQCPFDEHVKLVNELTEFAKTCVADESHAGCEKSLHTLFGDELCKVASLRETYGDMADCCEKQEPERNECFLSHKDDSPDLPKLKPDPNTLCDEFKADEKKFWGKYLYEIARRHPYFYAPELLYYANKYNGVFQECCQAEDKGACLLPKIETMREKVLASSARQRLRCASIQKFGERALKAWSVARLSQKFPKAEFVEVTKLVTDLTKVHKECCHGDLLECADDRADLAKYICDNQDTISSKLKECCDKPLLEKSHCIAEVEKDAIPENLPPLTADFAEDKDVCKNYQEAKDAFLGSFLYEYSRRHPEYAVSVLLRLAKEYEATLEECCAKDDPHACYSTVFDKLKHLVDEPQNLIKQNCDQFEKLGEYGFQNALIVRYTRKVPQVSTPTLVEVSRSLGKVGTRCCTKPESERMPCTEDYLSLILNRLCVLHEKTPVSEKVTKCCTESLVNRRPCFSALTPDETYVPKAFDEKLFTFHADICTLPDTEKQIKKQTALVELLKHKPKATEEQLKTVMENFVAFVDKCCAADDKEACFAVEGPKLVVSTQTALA

BSA [6] = target: BSA (UniProt P02769); assay: scFv ELISA, periplasmic extract on coated BSA, anti-V5-HRP detection
[7] = target: T5, Peptide 4: Biotin-…-Tyr-acid; assay: scFv ELISA, periplasmic extract on coated peptide, anti-V5-HRP detection
T5 sequence (peptide, N-terminal biotin; C-terminal acid): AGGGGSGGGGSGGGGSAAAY

[8] = target: T6, Peptide 8: Biotin-…-Tyr-acid; assay: as above
T6 sequence (peptide, N-terminal biotin; C-terminal acid): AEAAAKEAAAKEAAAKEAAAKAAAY

Peptide 8 = target: T7, Peptide 8 (N-terminal biotin; C-terminal Tyr without PC conjugation; C-terminal acid); assay: scFv ELISA, OD450
T7 construct: Unconjugated control peptide
T7 peptide: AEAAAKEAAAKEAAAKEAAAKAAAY
Description: (§2) For ELISA analysis of scFv binding, 96-well polystyrene plates were coated with Peptide 1, 4, 5, 8 or 100 μL BSA (10 μg/mL) in PBS at 4° C. overnight. Plates were washed three times with PBS-Tween and blocked with 100 μL 1% BSA-TBS for 1 hour at room temperature. 96-well streptavidin coated plates were coated with 100 μL biotinylated PC-peptides (1 μg/mL) in PBS for 1 hour at room temperature.
(§3) All plates were washed three times with PBS-Tween before 40 μL aliquots of PPE were added to assay plates along with 50 μL 10% BSA, and plates were incubated for 1 hour at room temperature. After washing, […] HRP conjugated anti-V5 in 5% BSA was added, and plates were incubated at room temperature for 30 mins. Plates were washed and 100 μL TMB substrate was added. Color was left to develop at room temperature before the reaction was stopped with 100 μL 1N HCl. The amount of scFv bound to each well was quantitated from absorbance measurement at 450 nm (OD450).

Peptide 4 = target: T8, Peptide 4 (N-terminal biotin; C-terminal Tyr without PC conjugation; C-terminal acid); assay: scFv ELISA, OD450
T8 construct: Unconjugated control peptide
T8 peptide: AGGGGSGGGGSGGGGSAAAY
Description: as §2, §3

[9] = target: Peptide 5: Biotin-…-[Tyr(PC)]-acid; assay: scFv ELISA
[10] = target: T9, Peptide 8: Biotin-AEAAAKEAAAKEAAAKEAAAKAAA-Tyr-acid (N-terminal biotin; C-terminal acid); assay: scFv ELISA
T9 construct: Control peptide without PC
T9 peptide: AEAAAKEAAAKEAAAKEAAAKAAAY
Method in brief: as §1

[11] = target: T10, Peptide 4: Biotin-AGGGGSGGGGSGGGGSAAA-Tyr-acid (N-terminal biotin; C-terminal acid); assay: scFv ELISA
T10 construct: Control peptide without PC
T10 peptide: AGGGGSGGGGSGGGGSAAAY
Method in brief: as §1

[12] = target: T11, Peptide 1: Biotin-AGGGGSGGGGSGGGGSAAA-[Tyr(PC)]-acid (N-terminal biotin; C-terminal Tyr(PC), PC = p-diazophenyl phosphoryl choline; C-terminal acid); assay: scFv ELISA
T11 construct: Synthetic phosphocholine-conjugated peptide
T11 peptide: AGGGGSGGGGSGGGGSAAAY
Method in brief: as §1

[13] = target: T12, Peptide 5: Biotin-AEAAAKEAAAKEAAAKEAAAKAAA-[Tyr(PC)]-acid (N-terminal biotin; C-terminal Tyr(PC), PC = p-diazophenyl phosphoryl choline; C-terminal acid); assay: scFv ELISA
T12 construct: Synthetic phosphocholine-conjugated peptide
T12 peptide: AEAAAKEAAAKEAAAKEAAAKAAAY
Method in brief: as §1

[14] = target: T13, Peptide 4: Biotin-AGGGGSGGGGSGGGGSAAA-Tyr-acid (N-terminal biotin; C-terminal acid; no PC); assay: scFv ELISA
T13 construct: control peptide without PC
T13 peptide: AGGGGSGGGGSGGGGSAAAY
Method in brief: as §1

[15] = target: T14, Peptide 1: Biotin-AGGGGSGGGGSGGGGSAAA-[Tyr(PC)]-acid (N-terminal biotin; C-terminal Tyr(PC), PC = p-diazophenyl phosphoryl choline; C-terminal acid); assay: scFv ELISA
T14 peptide: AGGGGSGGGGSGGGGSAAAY
Method in brief: as §1

[16] = target: T15, Peptide 8: Biotin-AEAAAKEAAAKEAAAKEAAAKAAA-Tyr-acid (N-terminal biotin; C-terminal acid; no PC); assay: scFv ELISA
T15 construct: control peptide without PC
T15 peptide: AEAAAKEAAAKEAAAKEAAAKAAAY
Method in brief: as §1

[17] = target: T16, Peptide 5: Biotin-AEAAAKEAAAKEAAAKEAAAKAAA-[Tyr(PC)]-acid (N-terminal biotin; C-terminal Tyr(PC), PC = p-diazophenyl phosphoryl choline; C-terminal acid); assay: scFv ELISA
T16 peptide: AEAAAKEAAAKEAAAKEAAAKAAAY
Method in brief: as §1

Sequence of BSA (P02769 25-607 limits assumed): as the sequence (P02769 25-607 limits assumed, form in doubt) above

B1: PcOxP_DB02_E06 (scFv, V domains shown)
VH: EVQLLESGGGLVQPGGSLRLSCAASGFTFSDEYMEWVRQAPGKGLEWVAASRGKGNSYTTEYADSVKGRFTISRDNSKNTLYLQMNSLRAEDTAVYYCARDYYGSSYWYFDVWGQGTLVTVSS
VL: DIQMTQSPSSLSASVGDRVTITCTASESLYSSKHKVHYLAWYQQKPGKAPKLLIYGASNRYIGVPSRFSGSGSGTDFTLTISSLQPEDFATYYCAQFYSYPLTFGGGTKVEIK
notes: scFv in periplasmic extract
BSA [1]
  OD450: 0.1 OD450
[2]
  OD450: 0.06 OD450
[3]
  OD450: 0.04 OD450
[4]
  OD450: 0.04 OD450
[5]
  OD450: 0.08 OD450

B2: PcOxP_DB02_C09 (human IgG1) (antibody, V domains shown)
VH: B1 VH with E32A, G53N, G55A, S57D
VL: B1 VL with S58G, S99F
PC-BSA
  EC50: 0.394 nM

B3: PcOxP_DB03_H03 (human IgG1) (antibody, V domains shown)
VH: B1 VH with F29G, E32F, G53N, G55W, S57D
VL: DIQMTQSPSSLSASVGDRVTITCTASESLSSSKHKHYLAWYQQKPGKAPKLLIYGASSRYSGVPSRFSGSGSGTDFTLTISSLQPEDFATYYCAQFYSYPLTFGGGTKVEIK
PC-BSA
  EC50: 0.229 nM

B4: PcOxP_DB04_A04 (human IgG1) (antibody, V domains shown)
VH: B1 VH with E32F, G53N, G55W, S57D
VL: DIVMTQSPDSLAVSLGERATINCTASQSVYSSKNKKHYLAWYQQKPGQPPKLLIYGASNRYIGVPDRFSGSGSGTDFTLTISSLQAEDVAVYYCAQFYRYPLTFGGGTKVEIK
PC-BSA
  EC50: 0.294 nM

B5: PcOxP_DB04_G11 (scFv) (scFv, V domains shown)
VH: B1 VH with E32H, G53W, G55A, S57D
VL: B4 VL with Q27E, V29L, N34H, K36V, R60T, R99S
BSA [6]
  OD450: 0.07 OD450

B6: PcOxP_DB04_H01 (scFv) (scFv, part only; not given: linker, domain order, V5 tag, V domains shown, not shown: another chain or arm of the molecule; small tags and cut ends)
VH: B1 VH with E32Y, G53N, G55Y, S57D
VL: B4 VL with Q27E, V29L, N34H, K36V, I62S, R99N
BSA [6]
  OD450: 0.07 OD450
[7]
  OD450: 0.06 OD450
[8]
  OD450: 0.07 OD450

B7: PcOxP_DB02_E06 (scFv) (scFv, V domains shown)
VH: B1 VH
VL: B1 VL
notes: scFv in periplasmic extract
Peptide 8
  binding result: no binding (tested: avg neg. control OD450 + 3x SD)
Peptide 4
  binding result: no binding (tested: avg neg. control OD450 + 3x SD)

B8: PcOxP_DB02_H02 (scFv, V domains shown)
VH: B1 VH with F27P, E32F, G53N, G55A, S57D
VL: B4 VL with Q27E, V29L, N34H, K36V, R99D
notes: scFv in periplasmic extract
BSA [1]
  OD450: 0.06 OD450
[9]
  OD450: 0.19 OD450
[10]
  OD450: 0.06 OD450
[11]
  OD450: 0.04 OD450
[12]
  OD450: 0.07 OD450

B9: PcOxP_DB02_G03 (scFv, V domains shown)
VH: B1 VH with T28G, E32F, G53N, G55A, S57D, F110H
VL: B4 VL with Q27E, S28D, V29L, N34H, K36V, A57T, F97Y, R99S
notes: scFv in periplasmic extract
BSA [1]
  OD450: 0.06 OD450
[10]
  OD450: 0.05 OD450
[11]
  OD450: 0.05 OD450
[13]
  OD450: 0.1 OD450
[12]
  OD450: 0.06 OD450

B10: PcOxP_DB01_H07 (scFv, V domains shown)
VH: B1 VH with E32H, G53N, G55Y, S57D, Y102I
VL: B4 VL with Q27E, R99S
notes: scFv in periplasmic extract
BSA [1]
  OD450: 0.07 OD450
[9]
  OD450: 0.92 OD450
[14]
  OD450: 0.05 OD450
[15]
  OD450: 0.1 OD450
[16]
  OD450: 0.05 OD450

B11: PcOxP_DB01_H09 (scFv, V domains shown)
VH: B1 VH with E32Y, G53N, G55A, S57T, F110D
VL: B4 VL with Q27E, V29L, N34H, K36V, R99S
notes: scFv in periplasmic extract
BSA [1]
  OD450: 0.09 OD450
[14]
  OD450: 0.09 OD450
[15]
  OD450: 0.06 OD450
[17]
  OD450: 0.09 OD450
[16]
  OD450: 0.04 OD450
